Data: paper PMC7054387

How the values were obtained:
[1] = molecular target: T1, H-NS (purified recombinant) (Escherichia coli K12 MG1655?) (UniProt P0ACF8); test: EMSA; settings: 1 mM Mg2+, EMSA: 0.5 pmol DNA in 20 µl 5 mM Tris-HCl pH 8.0, 1 mM MgCl2, 50 mM NaCl, 0.01 mM EDTA, 0.01 mM DTT, 3.3 mM imidazole, 40 min at 30°C, 5% PAAG, lysate series …
T1 sequence: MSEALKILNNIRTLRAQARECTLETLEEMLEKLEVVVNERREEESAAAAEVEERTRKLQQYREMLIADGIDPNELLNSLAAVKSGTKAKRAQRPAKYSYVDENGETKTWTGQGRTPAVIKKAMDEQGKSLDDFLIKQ

[2] = molecular target: T2, H-NS-His in cell lysate (Escherichia coli K12 MG1655?) (UniProt P0ACF8); test: EMSA + anti-His Western; settings: 0.01 mM EDTA, 0.01 mM DTT, 3.3 mM imidazole, 40 min at 30°C
T2 sequence: T1 sequence

[3] = n=6, EMSA: 0.5 pmol DNA in 20 µl 5 mM Tris-HCl pH 8.0, 1 mM MgCl2, 50 mM NaCl, 5% …, lysate series wi

Sequence | binding signal (% of initial fragment) ([1]; n=6) | binding signal (% of initial fragment) [2, 3] | other results
AGATCTTCCTCGGAGAAACACTGACACCCATACAGCTACTGGCGCTCGGCGCTATCATCGCCACTTCAATGGGGTCTACGCTGACAGTACGCAAAGAGAGCAAAATAAAAGAATTAGACATTAATTAAATTTACATTTCTGCATGGTTATGCATAACCATGCAGAATTTCTCGCTACTTTTCCTCTACACCGTCTTTATATATCGAATTATGCAAAAGCATATTTATTCCGAAAATTCCTGGCGAGCAGATAAATAAGAATTGTTCTTATCAATATATCTAACTCATTGAATCTTTATTAGTTTTGTTTTTCACGCTTGTTACCACTATTAGTGTGATAGGAACAGCCAGAATTGCGGAACACATAGCCGGTGCTATACTTAGTCTCGTTAATTACTGGGACATAACATCTAGA (double strand) [dps promoter, up-regulated mutant (positive selection)] | 100 |  | binding signal (% of initial fragment) ([2]; p=0.537, n=6, EMSA: 0.5 pmol DNA in 20 µl 5 mM Tris-HCl pH 8.0, 1 mM MgCl2, 50 mM NaCl, 5% PAAG, lysate series …): 129
AGATCTGCAAGTAAAAATGATACTCTTTTTATATTAAATTCAAACGGTTGACATATATATAGCAAGAGGTTTCAGGTGCGTTGTAGCGAGTTTATGTTTATAAAAAGCATAGTAAGCGTTGAAAAATGTAACTTTGAAATAAGTTAGAATAAAAAACAACATACATATATTAATTTAATCCTAAATGAAATTTATTAAAATCTGCAAACTATAATTTTGTGTATAAAAATATAAATGCACATCATCCTGATTATGATTGTGTATTTAATTGGTTGTTATTTGACTACTATCAACTTGTTTTAATTTTATGATAGGTGCAAGGTGGATTATGTTTGATCCGTAGTTTTCATCTGTCAATCATTTGATTTAATTATAAACAGGAGAGTTATCTCGTTCAAAAAAATTCATTGTTTATTGTAAGCGACAAATCTAGA (double strand) |  |  | binding signal (% of initial fragment) ([1]; p=0.78, n=6): 110; binding signal (% of initial fragment) ([2]; p=0.15, n=6, EMSA: 0.5 pmol DNA in 20 µl 5 mM Tris-HCl pH 8.0, 1 mM MgCl2, 50 mM NaCl, 5% PAAG, lysate series …): 117
AGATCTGCAAGTAAAAATGATACTCTTTATATTTAAATTCAAACGGTTGACATATATATAGCACGAGGTTTCATGTGCGTAGTAGTGAGTTTATGTTATTAAACAGCTTAGTATGCGTTGGAAAGTGAAGCTTTGTAATAAGTTAGAATAAGACGCGACATACATATAACAATTTAATCTTAAATGTAGTCTATTAGCATTTGCAAACAAACAATTTGCGTATATACTATAAATGCACATCATCCTGATTGTGATTGTGTATTTAACTGGTTCTTATATGACTACTACCAACTAGGTTTAGTCTTATGATAGGTGCAGGATGGATTATGTTTACTCCGTAGTTTCCATCTGTCTATCATTAGATTTAATTATGAACAGGAGAGTTATCCTGTTCAAAAAAAATTCATTGTTTATTGTAAGCGACAAATCTAGA (double strand) [appY promoter, activated mutant (positive selection cycle 9)] | 102 | 97.2 | 
AGATCTTCCTCGGAGAAACACTGACACCCATACAGCTACTGGCGCTCGGCGCTATCATCGCCGCTTCAATGGGGTCTACGCAGACAGTACGCAAAGAGAGCAAAATAAAAGAATTAGACATTAATTAAATTTACATTTCTGCATGGTTATGCATAACCTTGCAGAATTTCTCGCTACTTTTCCCCTACACCGTCTTTATATATCGAATTATGCAAAAGCATATTTATTCCGAAAATTCCTGGCGAGCAGATAAATAAGAATTGTTCTTATCAATATATCTAACTCATTGAATCTTTATTAGTTGTGTTTTTCACGCTTGTTACCACTATTAGTGTGATAGGAACAGCCAGAATAGCGGAACACATAGCCGGTGCTATACATAGTCTCGTTAATTACTGGGACATAACATCTAGA (double strand) [dps promoter, down-regulated mutant (negative selection)] |  | 113 | binding signal (% of initial fragment) ([1]; n=6, not significant): 117
